Measured values reported in PMC7943195.

Columns and labels:
[1] = target: P. aeruginosa PBP1B (Pseudomonas aeruginosa)
[2] = target: A. baumannii 19606 PBP1B (Acinetobacter baumannii 19606 (ATCC))

fold increase of the final FRET with 2 µM LpoP^Pa(sol), PBP1B^Pa in liposomes [1] | fold increase of the final FRET with 2 µM LpoP^Pa(sol), Triton X-100-solubilised PBP1B^Pa [1] | fold stimulation of the glycosyltransferase rate (dansyl-lipid II assay) with 0.5 µM LpoP^Ab(sol), Triton X-100-solubilised PBP1B^Ab [2] | Substance
2.2 fold | 2.1 fold |  | P. aeruginosa LpoP(sol) (natural protein)
 |  | 3.3 fold | A. baumannii 19606 LpoP(sol) (natural protein)
